These results are taken from publication PMC7555452, “Functional Characterization of a Putative RNA Demethylase ALKBH6 in Arabidopsis Growth and Abiotic Stress Responses”.

In the data set the target is T1, ALKBH6 (Arabidopsis thaliana, UniProt Q9SUP1 1-241).
T1 sequence: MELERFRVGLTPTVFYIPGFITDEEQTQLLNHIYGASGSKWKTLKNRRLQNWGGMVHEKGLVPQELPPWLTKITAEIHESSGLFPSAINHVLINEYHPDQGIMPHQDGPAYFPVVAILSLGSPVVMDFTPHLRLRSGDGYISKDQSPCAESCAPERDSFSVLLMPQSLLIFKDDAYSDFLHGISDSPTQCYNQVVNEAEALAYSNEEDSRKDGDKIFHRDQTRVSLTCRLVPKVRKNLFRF
The data set is described as follows: EMSA; 3, 5, 7 uM protein; 10 mM Tris-HCl pH 8.0, 150 mM NaCl, 1.0 mM EDTA, 10% glycerol; 5.0 pmol RNA in 20 uL, on ice 30 min; 6% native PAGE, 0.25x TBE, 4 °C. Conditions: protein: recombinant; tags: His-TF (pCold TF) fusion, cleaved with HRV 3C protease; Ni-NTA purified; label: 5'-fluorescein.
In the case of GAAUCCGAACUAGUUCU (ssRNA, m6A at position 9) [SOS3 RNA m6A], the binding result is reported as “binds”.
As to GGACGCUUCUUCGACCU (ssRNA, m5C at position 9) [m5C motif RNA m5C], the binding result is on record as “binds”.
The result for CGUAGGCUACAGAGAAGCCUU (ssRNA) [MAT2A RNA unmodified] reads “binds”.
CGUAGGCUACAGAGAAGCCUU (ssRNA, m6A at position 11) [MAT2A RNA m6A]: the binding result is recorded as “binds”.
Consider GAAUCCGAACUAGUUCU (ssRNA) [SOS3 RNA unmodified], for which the binding result was “binds”.
The result for GGACGCUUCUUCGACCU (ssRNA) [m5C motif RNA unmodified] reads “binds”.
